{
  "source": "a protein production outcome set (Wang et al. 2014)",
  "data": [
    {"experiment": "label from the status in PepcDB records", "values": [
      {"sequence": "MTATIPPLTPTVTPSNPDRPIADLKLQDIIKTLPKECFEKKASKAWASVLITLGAIAVGYLGIIYLPWYCLPITWIWTGTALTGAFVVGHDCGHRSFAKKRWVNDLVGHIAFAPLIYPFHSWRLLHDHHHLHTNKIEVDNAWDPWSVEAFQASPAIVRLFYRAIRGPFWWTGSIFHWSLMHFKLSNFAQRDRNKVKLSIAVVFLFAAIAFPALIITTGVWGFVKFWLMPWLVYHFWMSTFTIVHHTIPEIRFRPAADWSAAEAQLNGTVHCDYPRWVEVLCHDINVHIPHHLSVAIPSYNLRLAHGSLKENWGPFLYERTFNWQLMQQISGQCHLYDPEHGYRTFGSLKKV", "protein production": "failed"},
      {"sequence": "MTCHNAAGALEPTGSAAKTLPDGLHALMTAEELAFFARFGRLREVSAGQSLFERGAVGTQMYIVVSGQIDLDFGEDLMLKHLGPGEFFGELGLLIGDHARSAGASASTDSRLIELAHDDFQRLVDQDPSMVAHFLRRSIVRVVNNEQLLIRQLRRRNHDLEAALDNLYVTSHQLNHTEELSRTDELTGLHNRRGLALHLQECRRAGHVPGVGLILIDCDRFKRINDEFGHLAGDRVLQNVAHALRSVIAEGDLACRLGGDEFCVLVAQGTSELVHHIGECIVRAVEARLCNGQGEQGCSVSVGSCMIDADAAWNDWYTLADSALYEAKRQGGNVLCMQETLALDQPPASGHR", "protein production": "failed"},
      {"sequence": "MTCRPALSDSHPPEPGTPSSPSFGVCGDRPLLRERGQHEVFCGLAGIIWLHRKIQDAFFLIIGSRTCAHLMQSAAGVMIFAEPRFATAVLEEQDLAGLADAQDEIDRVVARLLERRPDIRLLFLVGSCPSEVIKIDLQRAALRLSKVHGARTRVVSYSGSGLETTFTQGEDACLAALVPDLPSAAADEAPDLLVVGTLPDVVEDQFGRLFAEMGIARTAFLPPRRSTALPAIGPKTRFLLAQPFLGDTARCLEARGARRLAAPFPFGVEGTTGWLAAAAQAFGVDDLTFRRVTAPGRERAARALERQRATLEGKRVFFFPESQLEIPLARFLVRELGMEAIEIGTPYLHRAHLAEELALLPATALLSEGQDVDRQLDRCRAARPDLVVCGLGLANPLEAEGITTKWSIELVFSPIHGYEQAGDLAELFARPLLRRALLKV", "protein production": "failed"},
      {"sequence": "MTDAHTVCPKFESAFQLLGKRWTGLIINVLLTGPKRFKQVAAEIPQMSDRVLAERLKELEEMDICLRQVYPETPVRIEYELTEKGKALQEVMLEVQCWADKWVEVPN", "protein production": "failed"},
      {"sequence": "MTDDKKIRAAIVGYGNIGRYALQALREAPDFEIAGIVRRNPAEVPFELQPFRVVSDIEQLESVDVALVCSPSREVERTALEILKKGICTADSFDIHDGILALRRSLGDAAGKSGAAAVIASGWDPGSDSVVRTLMQAIVPKGITYTNFGPGMSMGHTVAVKAIDGVKAALSMTIPLGTGVHRRMVYVELLPGHNLEEVSAAIKADEYFVHDETHVIQVDEVDALIDMGHGVRMVRKGVSGSTQNQRMSFDMEINNPALTGQVLVCAARAAMRQQPGAYTLQEIPVIDLLPGDREQWIGKLC", "protein production": "not failed"},
      {"sequence": "MTDFSRTFSGTPSAVLPTANRFFRPPLPSAHVARPRLCRRLRDGLDGRLLLIAAPAGFGKSSLAIEFCESLDPRWQSLWLGLSSRESDPGRFLERLLDGLRQYHPTLGEEALGLLKMRQRHQPFAFETWLDDLLDELAPCLDPQRPLLLVLDDYHLAQGAVLDRCLQFLLNHLPEGLVLLVTSRQRPDWHLARLRLSRQLLELSEQDLRLTAEESGALMAASGLELDEDALDALLERSEGWVAGLRLWLLARGDPEEQVSPGVHGADELIRDYLLEEVIERQPPEVQAFLAQTARFERFCAELCDTVREAGDSAAILDHLQQHQVFLVPLDENGQWFRYHHLFSDLLLARPLPDFGPSAGSLHLRACGWFSRHGLLDQAVEQALRAGQPDVAASLVQNLSEEQLLAEQNIATLLRWKMDLPDSLLASTPRLILLYGWALALACQLDAAEELAGQLARFLPAPDESAQRDLLAQWQALSGVIARGRGDIDKAEAHCREALQDLAGERYGTRLQCLSTLSNLAVTRGDFWQARNYNRDALEFAQRYGNPLFEALVHYDRARVLQARGEVARAEEEVRQGLERLQHLPAQRRYAVRGRLLLYRGYLRSLALQPDEARKWIKQGIEETRSCRDVSLVIGYCVLASLEGRLGNYAAAFARLGDVERLMHAWDIPPIYYLAAITLIKCELWLAQGQTELAGVWLQRLGGTYGGQAATPPECSPLLPLHVELLQAGLERREGRPEEAARRLDRLARSTRENGALLPARLALGQLAALHLEQGREREALATLQQAMEGAVGGALLPLHELLVQQPEWLREQLQRFPACPGAQRMRALLPEPPAEPAGSAGEVLSGRELAVLELIAQGLSNQEISERLFISLHTVKSHARHINDKLGVERRTQAVARAKHMGLLR", "protein production": "failed"},
      {"sequence": "MTDGTTDGLNKAAVFICHCSGNISEHVDINTVKKTLKAEGFSVYDYEYLCSSQGQALIKKKISEGHVDRVVIGSCTPSKHGTLFKKCIQETGLNRAGLEIANLREQCAWVHPDREGATEKALSLLKAKLKRLENIEPLEDIKVDIAQQVLVIGGGIAGITAALNLADNGVPTFLVEKDSSIGGQMAKIGKIFSPDKLAEECAMCSLSPLMNEVAAHPRITLLTWTEVEKLSGSAGNFTVRLKKKPRYVKDNCIACGKCSRVCPVSVEDEFNCGYMDKKAISLRFSQSVPKVYFIDPDSCLRLKGENCGKCAEACKTGAIDFSQKEEIIELNVGAVVVATGFEEYDVSQKPQYGYGIFENVLTQMELARVLGINGPTKGELLRISDFSKASSDPAPSTCDSRCESSSDHPFEVETPERIVMIQCVGSRDEKEGGNRYCSRYCCMAALKHASLIKKRYPKTEITICYIDMRAFGFYENYYRAVQETGVNFVRGRPAEVIEKPDKSLVVRVEDTLSQKIKEIPADMVVLSAAMVPSPGTKKIASVLNLSQDESGFIKERHSKLKPVDCSLDGIFVCGTAQSPKDVTDTIAQAGLAAVRARAFITDSPKVLDNEIAAINQLLCTRCGECLKCPFDALSINENGRVVLDPLICTGCGYCTELCREGAVQIAGFTKSQLKAELEGVLEEGDVLGFVNSGISSLTCDNIGNSVLTYPSSVKLIKVPTCLIVDRDLVLHAFRHGASSVLFVEDPPDSPRAEVIYPLTVSHFEKLKEELGDSGKRIHFKKAYVPNIKGLAGTFTSLAREGEMIK", "protein production": "failed"},
      {"sequence": "MTDKKSENKTIQGASSLSLENRKILSITGVNEVINFDEEKISLKTDLGPLLIKGSELKMNKLDVQNGEVIIGGFISNIDYLNKKNKRKRNINLLSKIFKLEHHHHHH", "protein production": "not failed"},
      {"sequence": "MTDKTSLSYKDAGVDIDAGNALVGRIKGVVKKTRRPEVMGGLGGFGALCALPQKYREPVLVSGTDGVGTKLRLAMDLKRHDTIGIDLVAMCVNDLVVQGAEPLFFLDYYATGKLDVDTASAVISGIAEGCLQSGCSLVGGETAEMPGMYHGEDYDVAGFCVGVVEKSEIIDGSKVSDGDVLIALGSSGPHSNGYSLVRKILEVSGCDPQTTELDGKPLADHLLAPTRIYVKSVLELIEKVDVHAIAHLTGGGFWENIPRVLPDNTQAVIDESSWQWPEVFNWLQTAGNVEHHEMYRTFNCGVGMIIALPAPEVDKALALLNANGENAWKIGIIKASDSEQRVVIE", "protein production": "not failed"},
      {"sequence": "MTDMNPDIEKDQTSDEVTVETTSVFRADFLSELDAPAQAGTESAVSGVEGLPPGSALLVVKRGPNAGSRFLLDQAITSAGRHPDSDIFLDDVTVSRRHAEFRLENNEFNVVDVGSLNGTYVNREPVDSAVLANGDEVQIGKFRLVFLTGPKQGEDDGSTGGP", "protein production": "failed"},
      {"sequence": "MTDPLQRPRRKDPLRRTTLGHVPPRLRSRAAMEMATHAAQGRFVLQTCESCDRATYPPRDRCPNCWGELVWREQDAGGQVAAETTIRHSTDTYFRNHMPWRIGTVRLDAGPTAIVHLHGEAGVGDRVNMVLKLDRGGNPALFAMPRGDVPNMQDDPQFRSFTADPKHRRVLVTDGRTDTGQAIARALLDAGAAKVFVGDCAPLMRFAGKQQLAALDGAELVPLDVTDTHSVGNLAAQLGGRIDIVINTAGQVREGGVAFGAKLSDLQAGLDTGVVGLMRLAQAFGPALGARSDDGVNSAAAFLDVVPVSGLSGQSGYSGTAASAAARLSLLSGFRGEMQKAGIRVMSVLTGPVDDAWHQRLPQPKTAPSHLARTVVAALRDGQEISCAGDVAKDLFARWRADPLLTMREENR", "protein production": "failed"},
      {"sequence": "MTDPSQMQAEELLSFLEEGGTLKMLHDVSADTIEHIYAVGYNFFQSGKIEQAAKVFQLLSMLDHYQARFFIGLGAARQELGEYLQAIDAYSYAALVDINDPRPPFHSAECHLKLEQLTEAESGFYSAKEMSAGKSQYADLHQRAGIMLEAVRNKRSNLEHHHHHH", "protein production": "not failed"},
      {"sequence": "MTDQIREHLVSMLVHNKPGVMRKVANLFARRGFNISSITVGESETPGLSRLVIMVKGDDKTIEQIEKQAYKLVEVVKVTPIDPLPENRVEREMALIKVRFDEDKQEIFQLVEIFRGKIIDVSREGAIIEITGARSKVEAFINLLPQKQVEEIARTGIVAMNRWNVKEGEGF", "protein production": "not failed"}
    ]}
  ]
}
